# Results published in patent publication US20120201746A1.
# Biological target: Neonatal Fc receptor (FcRn) on CHO-FcRnGPI cells
# Assay: flow cytometry on CHO-FcRnGPI cells, pH 6.4
# Sequence of Neonatal Fc receptor (FcRn) on CHO-FcRnGPI cells (P55899 24-297, chain 1 of 2): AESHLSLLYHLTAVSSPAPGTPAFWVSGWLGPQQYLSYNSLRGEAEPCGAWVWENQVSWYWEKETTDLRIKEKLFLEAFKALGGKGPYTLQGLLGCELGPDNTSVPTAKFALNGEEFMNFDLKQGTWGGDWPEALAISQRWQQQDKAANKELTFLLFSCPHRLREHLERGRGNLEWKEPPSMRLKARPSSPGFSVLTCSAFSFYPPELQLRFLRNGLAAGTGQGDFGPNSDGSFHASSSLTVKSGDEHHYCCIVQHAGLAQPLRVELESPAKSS
# Sequence of Neonatal Fc receptor (FcRn) on CHO-FcRnGPI cells (P61769 21-119, chain 2 of 2, further chain): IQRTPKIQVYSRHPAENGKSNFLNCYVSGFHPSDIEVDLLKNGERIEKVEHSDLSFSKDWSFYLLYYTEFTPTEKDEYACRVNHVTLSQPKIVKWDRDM
substance,measurement,value
Control mAb (antibody),EC50,50.4 nM
